{"source": "the DeepSol protein solubility set", "data": [{"experiment": "soluble on expression in E. coli; label from the status in PepcDB or PDB records", "values": [{"sequence": "MSLSIAISNAIIVTQNDNRDVYRGNVKIDGNKIQYVGKDEVDGDILIDGTNKVLMPGLINTHAHVGMSASKGLFDDVDLDSFLKKTFEYDSDRTSTGIFNSAKLGMYEMIGNGITAFVDLYYSEDIIAKAAEEIGIRAFLSWVTLDKELTTQIGDPVENAENFIRNHVGNKYVVPSVGVQGIYVANDDTFRRAMDLAEKYGTILHMHLSETRKEVYDAVKKLGERPIEHLHNIGILNKRVLAAHCVWATYHEVRLLSKDGVNVSWNSISNFKLGTGGIPPIPEMMRENVNVTIGTDSNGSNNSLDMFQAMKFSAISVKNYRWDASLMKAQEILDMATRNAARALQLNAGSIEVGKLADVVLLDATIPSMIPTNEANAVSNIVYSSSPQNVDTVIIDGEIKKINGKILGFHSNKFTNSEFKEGHHHHHH", "soluble on expression in E. coli": "not soluble"}, {"sequence": "MSLSKIKWWEMSRSFVLDEPETAILQIKPFPLPGLAQVPARIVLSQYRGLFYLNAYQDLDYQQRIYKSAPLPLLSPEDLRNCVSPDNPIQVSDNWPPSNTLDTGITLTPLGFDCSVPPQWQLSLRYLLIDQRDPQHPLLAISHRQDMTQMDFTPLQPISVETGQQWLQALQKFPPWFRAFDSGSGPITLNAYTPPATADSVWKQFRALHEQLRTAKDKGPGIRQVEDFFALHDYRSIAIDHSEYPGLLNDIAYWTSEAGQLNTARNWLLEVLRRDLGRMPTYLNLADLDWALFEQRPLDNIHQGRAIEGYRLYCGMRLQRQMSVPPRVLKRLGLESANPQACQGFWPLVAAADAGDEAEVRRLLASGVSGEVMAEDGRSALLHALDAPHLEIARLLLAHGAHTSGQYQWSTLAMLAMQRDLKDSPDLNQGGRLKFLLQAGVAIDEPNSRGQTPLMKLAEQERNLQGFTWLLQHPQNLDLRTVDDGETALYRAFWSNNYPAMKLLIEAGADLNLSYGRGTCGNEPMGQSLLMLVADKISPDQHSPIVSMQDTLDMFTLLLEKGADPNVGQRCEKKGRPLLLEIIARKKRDDMLKVLQGFAPPAPATAFREGHHHHHH", "soluble on expression in E. coli": "not soluble"}, {"sequence": "MSLSLDQESIEHDLKLTSEEIFHSNGKYIPPMLNTLGQHLSVRKEFFQNFLTFVAKNFNYKISPELKLDLIEKFEILNCCIKFNSIIRQSDVLNDIWEKTLSNYNLTQNEHLTTKTVVINSPDVFPVIFKQFLNHVVFVLFPSQNQNFKLNVTNLINLCFYDGILEEGEKTIRYELLELDPMEVDTSKLPWFINFDYLNCINQCFFDFTFACEEEGSLDSYKEGLLKIVKILYYQFNQFKIWINTQPVKSVNANDNFININNLYDDNHLDWNHVLCKVNLKEQCIQIAEFYKDLSGLVQTLQTLDEGHHHHHH", "soluble on expression in E. coli": "not soluble"}, {"sequence": "MSLSMLAVAATALATFAIAPAQAQAEKPKDKVTLMLNWYLYSEHATFFLGKEKGFYAEEGIDLGIQEGRGSAVTAQAVAAKSATFGYIDVTTMIKAAAKGAPLKSTGVLFQVSPMSVMGLSEKNIATPKDIIGKTVAVTPGDSMSQMWPLFLKVNDIRPDQVKVVSGDGQTKLNAVANGQADLLLGYVMDQAIKLQDATGKPVTPIRFADSGVNQISSGIITHKNLLTENPDLVKRFMRASTKAAEAAEKSPEAAVDAMLKAHPKAGVRDTLIVGMKQSVALYHTQETANQRPFRVAMKNVNDSLDLLEGHHHHHH", "soluble on expression in E. coli": "not soluble"}, {"sequence": "MSLSNIHHLERSLRKLRLTRVGAEWHALEKRALAEGWTPSRYLLTLCNEELLWRESEKLRRYKKEARLPVAKTLSEYDFSQVPELNGAQFRQLCETTDWVDAGENVLLFGASGLGKSHLAAAIVDGVVGQGYRARFYSAGELLQELRKARAQLKLNELLLKLDRYRVIVVDDLGYVKRDSAETGVLFELIAHRYERGSLVITSNHPFSMWGSIFVDETMAVAAADRLIHHGYMFELKGESYRKKTAKAVTSATEGHHHHHH", "soluble on expression in E. coli": "soluble"}, {"sequence": "MSLSNWPYPRIVAHRGGGKLAPENTLASIDVGAKYGHKMIEFDAKLSKDGEIFLLHDDNLERTSNGWGVAGELNWQDLLRVDAGSWYSKMFKGEPLPLLSQVAERCREHGMMANIEIKPTTGTGPLTGKMVALAARELWAGMTPPLLSSFEIDALEAAQQAAPELPRGLLLDEWRDDWRELTARLGCVSIHLNHKLLNKARVMQLKDAGLRILVYTVNKPQRAAELLRWGVDCICTDAIDVIGPNFTAQEGHHHHHH", "soluble on expression in E. coli": "soluble"}]}]}
